Measured values taken from patent US20220249561A1 (SHINSHU UNIVERSITY, published 2022).

B1: Ligand 001P (ligand)
chain: DGHHHHHHGSLQDSEVNQEAKPEVKPEVKPETHINLKVSDGSSEIFFKIKKTTPLRRLMEAFAKRQGKEMDSLTFLYDGIEIQADQTPEDLDMEDNDIIEAHREQIGGLEVLFQGPAAGAGRTPSGSRSAEIFPRDSNLKDKFIKHFTGPVTFSPECSKHFHRLYYNTRECSTPAYYKRCARLLTRLAVSPLCSQT
B2: Ligand 019P (ligand)
chain: DGHHHHHHGSLQDSEVNQEAKPEVKPEVKPETHINLKVSDGSSEIFFKIKKTTPLRRLMEAFAKRQGKEMDSLTFLYDGIEIQADQTPEDLDMEDNDIIEAHREQIGGLEVLFQGPFLKHLTGPLYFSPKCSKHFHRLYHNTRDCTIPAYYKRCARLLTRLAVSPVCMEDKQ
B3: Ligand 018P (ligand)
chain: DGHHHHHHGSLQDSEVNQEAKPEVKPEVKPETHINLKVSDGSSEIFFKIKKTTPLRRLMEAFAKRQGKEMDSLTFLYDGIEIQADQTPEDLDMEDNDIIEAHREQIGGLEVLFQGPDKFLKHLTGPLYFSPKCSKHFHRLYHNTRDCTIPAYYKRCARLLTRLAVSPVCMEDKQ
notes: also called Ligand 18P
B4: Ligand 021P (ligand)
chain: DGHHHHHHGSLQDSEVNQEAKPEVKPEVKPETHINLKVSDGSSEIFFKIKKTTPLRRLMEAFAKRQGKEMDSLTFLYDGIEIQADQTPEDLDMEDNDIIEAHREQIGGLEVLFQGPLTGPLYFSPKCSKHFHRLYHNTRDCTIPAYYKRCARLLTRLAVSPVCMEDKQ
B5: Ligand 022P (ligand)
chain: DGHHHHHHGSLQDSEVNQEAKPEVKPEVKPETHINLKVSDGSSEIFFKIKKTTPLRRLMEAFAKRQGKEMDSLTFLYDGIEIQADQTPEDLDMEDNDIIEAHREQIGGLEVLFQGPGPLYFSPKCSKHFHRLYHNTRDCTIPAYYKRCARLLTRLAVSPVCMEDKQ
B6: Ligand 020P (ligand)
chain: DGHHHHHHGSLQDSEVNQEAKPEVKPEVKPETHINLKVSDGSSEIFFKIKKTTPLRRLMEAFAKRQGKEMDSLTFLYDGIEIQADQTPEDLDMEDNDIIEAHREQIGGLEVLFQGPKHLTGPLYFSPKCSKHFHRLYHNTRDCTIPAYYKRCARLLTRLAVSPVCMEDKQ

Molecular target: T1, ALK 001P
T1 construct: ALK (1-19) is described only as a region comprising a secretory signal, and no cleavage site is stated; Expressed in Expi293 cells and captured on a Protein A chip through its Fc
Test: SPR, Biacore 8K; receptor-Fc captured on Protein A chip, ligand as analyte
Method: (§1) Whether or not ALK 001P and LTK 001P obtained in Example 5 had bound to Ligand 001P and Ligand 002P was examined using Biacore 8K instrument (GE Healthcare Japan) by the surface plasmon resonance (SPR) technique.
(§2) ALK 001P and LTK 001P were dissociated (i.e., regenerated) from Protein A coating the sensor chip surface (i.e., regeneration) by injecting 10 mM Glycine-HCl (pH 1.6) at a flow rate of 30 μl/min for 30 seconds. The bond dissociation curve modified by subtracting the baseline value was prepared using Biacore8K Evaluation Software (GE Healthcare Japan).

Binder | binding result
B1 | binds

Molecular target: T2, LTK 001P
T2 construct: Expressed in Expi293 cells and captured on a Protein A chip through its Fc
Test: as above
Method: as §1, §2

Binder | binding result
B1 | binds

Molecular target: T1, ALK 001P
Test: SPR, Biacore 8K; ALK 001P captured on Protein A chip, ligand as analyte, 6 concentrations from 20 nM

Binder | binding result
B2 | binds
B3 | binds
B4 | binds
B5 | binds
B6 | binds

Molecular target: T2, LTK 001P
Test: SPR, Biacore 8K; LTK 001P captured on Protein A chip, ligand as analyte, 6 concentrations from 20 nM

Binder | binding result
B2 | binds
B3 | binds
B4 | binds
B5 | binds
B6 | binds
